The labels stand for the following.
B1: Periplasmic serine endoprotease DegP (Escherichia coli (strain K12)), P0C0V0 (parent)
chain: MKKTTLALSALALSLGLALSPLSATAAETSSATTAQQMPSLAPMLEKVMPSVVSINVEGSTTVNTPRMPRNFQQFFGDDSPFCQEGSPFQSSPFCQGGQGGNGGGQQQKFMALGSGVIIDADKGYVVTNNHVVDNATVIKVQLSDGRKFDAKMVGKDPRSDIALIQIQNPKNLTAIKMADSDALRVGDYTVAIGNPFGLGETVTSGIVSALGRSGLNAENYENFIQTDAAINRGNSGGALVNLNGELIGINTAILAPDGGNIGIGFAIPSNMVKNLTSQMVEYGQVKRGELGIMGTELNSELAKAMKVDAQRGAFVSQVLPNSSAAKAGIKAGDVITSLNGKPISSFAALRAQVGTMPVGSKLTLGLLRDGKQVNVNLELQQSSQNQVDSSSIFNGIEGAEMSNKGKDQGVVVNNVKTGTPAAQIGLKKGDVIIGANQQAVKNIAELRKVLDSKPSVLALNIQRGDSTIYLLMQ
partner: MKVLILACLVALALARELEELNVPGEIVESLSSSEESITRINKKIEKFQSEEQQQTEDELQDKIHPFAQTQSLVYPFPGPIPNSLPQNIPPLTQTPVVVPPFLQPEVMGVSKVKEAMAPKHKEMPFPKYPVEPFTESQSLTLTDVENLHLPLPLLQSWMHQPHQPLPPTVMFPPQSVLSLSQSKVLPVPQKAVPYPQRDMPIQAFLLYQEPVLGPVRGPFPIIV

In the first experiment the parent is B1. Conditions: with casb_bovin CSN2, P02666.
Take L291W: the “effect of a mutation on the interaction” value is listed as “disrupting interaction”.
On the same count and under the same terms, the value for R351A;Q353A was “disrupting interaction”.

In a further experiment the parent is B1. Conditions: with casb_bovin CSN2, P02666. The source holds these as a separate data set.
As to R351A;Q353A, the “effect of a mutation on the interaction” value was “decreasing interaction”.
On the same count and under the same terms, the entry for R213A is “disrupting interaction”.
